One block for each binder: values may come before it.
What was measured:
[1] = target: T1, recombinant human TRPML1 E1 domain (human); test: BLI
T1 chain: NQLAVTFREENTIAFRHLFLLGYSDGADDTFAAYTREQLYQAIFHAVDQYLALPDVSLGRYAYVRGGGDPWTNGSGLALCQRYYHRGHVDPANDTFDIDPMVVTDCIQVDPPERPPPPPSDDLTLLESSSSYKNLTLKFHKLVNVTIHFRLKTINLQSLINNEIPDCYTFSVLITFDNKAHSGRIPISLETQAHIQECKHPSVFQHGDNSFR

[2] = target: CI-MPR used for biolayer interferometry (UniProt P11717 41-2491); test: BLI
[3] = immunostaining flag/lamp1, Pearson's correlation; conditions: glycan lost; control: Siglec-15-flag (wild type)
[4] = plasma membrane Siglec-15 level; conditions: glycan lost; control: Siglec-15-flag (wild type)
[5] = Ca2+ release assay, Daoy cells; conditions: glycan lost; control: Siglec-15-flag (wild type)

Kd [1]: 0.499 nM
Kd [2]: 1.04 nM
B1: recombinant Siglec-15-N (263 AAs) (domain or fragment)
chain: FVRTKIDTTENLLNTEVHSSPAQRWSMQVPPEVSAEAGDAAVLPCTFTHPHRHYDGPLTAIWRAGEPYAGPQVFRCAAARGSELCQTALSLHGRFRLLGNPRRNDLSLRVERLALADDRRYFCRVEFAGDVHDRYESRHGVRLHVTAAPRIVNISVLPSPAHAFRALCTAEGEPPPALAWSGPALGNSLAAVRSPREGHGHLVTAELPALTHDGRYTCTAANSLGRSEASVYLFRFHGASGAST

B2: Siglec-15: N172Q (protein)
parent chain: MEKSIWLLACLAWVLPTGSFVRTKIDTTENLLNTEVHSSPAQRWSMQVPPEVSAEAGDAAVLPCTFTHPHRHYDGPLTAIWRAGEPYAGPQVFRCAAARGSELCQTALSLHGRFRLLGNPRRNDLSLRVERLALADDRRYFCRVEFAGDVHDRYESRHGVRLHVTAAPRIVNISVLPSPAHAFRALCTAEGEPPPALAWSGPALGNSLAAVRSPREGHGHLVTAELPALTHDGRYTCTAANSLGRSEASVYLFRFHGASGASTVALLLGALGFKALLLLGVLAARAARRRPEHLDTPDTPPRSQAQESNYENLSQMNPRSPPATMCSP
localisation_or_trafficking [3]: decreases
localisation_or_trafficking [4]: no change
other: lysosomal Ca2+ release [5]: decreases

— article PMC13161473 (2025)
